In patent US20110028538 one finds binding signal data, which are given here for one substance.

The data set relates to TR4 (Nr2c2), endogenous (Mus musculus). The settings on record: ChIP with anti-TR4 in RAW264.7 cells versus IgG.

Regarding CD36 promoter region (ChIP amplicon), the binding signal is over 4 fold.
